Results from patent US20220291215A1 (UNIVERSITY HEALTH NETWORK, published 2022).

Key:
[1] = biological target: T1, recombinant 10x His-tagged CD4 protein (extracellular domain of human CD4, GS linker, 10x histidine tag) (human, UniProt P01730 26-390); assay: biolayer interferometry
T1 construct: also called recombinant CD4; sCD4 (analyte)

[2] = biological target: T1, recombinant 10x His-tagged CD4 protein …; assay: biolayer interferometry (Octet Red), biotinylated DP4 on streptavidin sensors, CD4 as analyte, steady-state analysis
[3] = biological target: T1, recombinant 10x His-tagged CD4 protein …; assay: biolayer interferometry KD against the previously estimated KD >2 mM between CD4 and HLA class II

Binder | binding result [1] | Kd [2] | fold improvement in the binding affinity [3]
biotinylated recombinant wild-type DP4 (extracellular domains of DPA1*01:03 and wild-type DPB1*04:01 with leucine zippers) (peptide-MHC, also called biotinylated wild-type DP4 (ligand)) MHC II alpha: IKADHVSTYAAFVQTHRPTGEFMFEFDEDEMFYVDLDKKETVWHLEEFGQAFSFEAQGGLANIAILNNNLNTLIQRSNHTQATNDPPEVTVFPKEPVELGQPNTLICHIDKFFPPVLNVTWLCNGELVTEGVAESLFLPRTDYSFHKFHYLTFVPSAEDFYDCRVEHWGLDQPLLKHWEAQEPIQMPETTETGGGGSLEIRAAFLRQRNTALRTEVAELEQEVQRLENEVSQYETRYGPLGGGKGSHHHHHHHHHH MHC II beta: RATPENYLFQGRQECYAFNGTQRFLERYIYNREEFARFDSDVGEFRAVTELGRPAAEYWNSQKDILEEKRAVPDRMCRHNYELGGPMTLQRRVQPRVNVSPSKKGPLQHHNLLVCHVTDFYPGSIQVRWFLNGQEETAGVVSTNLIRNGDWTFQILVMLEMTPQQGDVYTCQVEHTSLDSPVTVEWKAQSDSARSKGGGGSLEIEAAFLERENTALETRVAELRQRVQRLRNRVSQYRTRYGPLGGGKGSGLNDIFEAQKIEWHE | no binding (tested: 26 µM) |  | 
biotinylated recombinant DP4^L112W/V141M (extracellular domains of DPA1*01:03 and DPB1*04:01 L112W/V (peptide-MHC, also called DPR^L112/V141M; biotinylated DP4^L112W/V141M (ligand)) MHC II alpha: IKADHVSTYAAFVQTHRPTGEFMFEFDEDEMFYVDLDKKETVWHLEEFGQAFSFEAQGGLANIAILNNNLNTLIQRSNHTQATNDPPEVTVFPKEPVELGQPNTLICHIDKFFPPVLNVTWLCNGELVTEGVAESLFLPRTDYSFHKFHYLTFVPSAEDFYDCRVEHWGLDQPLLKHWEAQEPIQMPETTETGGGGSLEIRAAFLRQRNTALRTEVAELEQEVQRLENEVSQYETRYGPLGGGKGSHHHHHHHHHH MHC II beta: RATPENYLFQGRQECYAFNGTQRFLERYIYNREEFARFDSDVGEFRAVTELGRPAAEYWNSQKDILEEKRAVPDRMCRHNYELGGPMTLQRRVQPRVNVSPSKKGPLQHHNWLVCHVTDFYPGSIQVRWFLNGQEETAGVMSTNLIRNGDWTFQILVMLEMTPQQGDVYTCQVEHTSLDSPVTVEWKAQSDSARSKGGGGSLEIEAAFLERENTALETRVAELRQRVQRLRNRVSQYRTRYGPLGGGKGSGLNDIFEAQKIEWHE |  | 8.9 µM | ≥ 200 fold
